Legend:
Details in all cases: both partners purified
[1] = target: T1, GII.4 2006b Virus like particles (Human norovirus GII.4 2006b …, UniProt R4I3T2, strain); experiment: ELISA; EIA: plates coated with VLP at 0.25 μg/ml in PBS for 4 h, blocked in 5% dry milk in PBS-0.05% Tween-20; two-fold serial dilutions of mAb at 37°C; anti-human IgG-HRP; less than 0.2 OD at 2 μg/ml scored as negative
T1 construct: copies: 180

[2] = target: GII.2 Virus like particles (Human norovirus GII.2 (Snow Mountain …, UniProt Q80RD6, strain)); experiment: as above
[3] = target: T2, GII.4 2012 Virus like particles (Human norovirus GII.4 Sydney 2012, …, UniProt K4LM89, strain); experiment: as above
T2 construct: copies: 180

[4] = target: T3, GII.4 2002 Virus like particles (Human norovirus GII.4 2002 Farmington …, UniProt R4I4P2, strain); experiment: as above
T3 construct: copies: 180

[5] = target: T4, GII.4 2015 Virus like particles (Human norovirus GII.P16-GII.4 Sydney …, strain); experiment: as above
T4 construct: copies: 180
T4 chain: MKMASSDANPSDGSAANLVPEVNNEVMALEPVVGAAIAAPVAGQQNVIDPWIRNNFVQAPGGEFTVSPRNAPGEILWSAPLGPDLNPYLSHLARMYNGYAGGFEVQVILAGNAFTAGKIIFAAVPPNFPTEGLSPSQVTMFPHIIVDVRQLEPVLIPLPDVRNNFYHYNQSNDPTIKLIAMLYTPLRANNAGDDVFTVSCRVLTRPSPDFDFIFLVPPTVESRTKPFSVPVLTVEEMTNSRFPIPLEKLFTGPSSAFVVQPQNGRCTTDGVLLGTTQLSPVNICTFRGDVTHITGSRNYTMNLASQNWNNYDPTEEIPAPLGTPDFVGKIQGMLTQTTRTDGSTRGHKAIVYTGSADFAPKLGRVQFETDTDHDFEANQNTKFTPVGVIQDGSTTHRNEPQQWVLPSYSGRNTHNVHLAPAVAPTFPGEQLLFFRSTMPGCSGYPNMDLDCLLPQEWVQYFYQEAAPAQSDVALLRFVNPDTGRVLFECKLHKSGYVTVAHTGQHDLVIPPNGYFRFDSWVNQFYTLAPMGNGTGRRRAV

[6] = target: GII.17 Virus like particles (Human norovirus GII.17, GenBank …, UniProt A0A0E3X5I8, strain); experiment: as above
[7] = target: T5, GII.4 1997 Virus like particles (Human norovirus GII.4 1997 (US95_96), …, UniProt R4I4R2, strain); experiment: as above
T5 construct: copies: 180

[8] = target: soluble GII.4 P domain from the 2012 pandemic strain (Human norovirus GII.4 Sydney 2012, …, UniProt K4LM89, strain); experiment: co-purification of the complex; Fab of A1227 purified in complex with soluble GII.4 P domains, screened for crystallization
[9] = target: soluble GII.4 P domain from the 2006 pandemic strain (Human norovirus GII.4 2006, taken as …, UniProt R4I3T2, strain); experiment: as above
[10] = target: soluble GII.4 P domain from the 2009 pandemic strain (Human norovirus GII.4 2009 New Orleans, …, UniProt D3YBZ4, strain); experiment: as above
[11] = target: GII.4.2002 P domain (Human norovirus GII.4 2002 Farmington …, UniProt R4I4P2, strain); experiment: crystal structure

Measured: binding result

B1: A1227 (recombinant IgG1) (antibody, V domains shown)
VH: QVQLVQSGGGMVQPGGSLSLSCAASGFTLSNYAMTWVRQAPGKGLEWVSSIGGSGGTTYYADSVKGRFTISRDSSMNTLYLQMSNLRAGDTAVYYCAKDKTRTLRLGYSGMDVWGQGTTVTVSS
VL: DIRLTQSPSSLSASVGDRVTITCRASQSISSYLNWYQQKPGKAPDLLIYGASSLQSGVPSRFSGSGSGTDFTLTISSLQPEDFGNYYCQQSFSTPRTFGQGTKVELK
not listed: [8] | [9] | [10] | [11]
binds: all other assays above

B2: A1227 Fab (Fab, V domains shown)
VH: B1 VH
VL: B1 VL
notes: also called Fab A1227
binds: [8] | [9] | [10]

B3: A1431 Fab (Fab, V domains shown)
VH: QVQLVQSGGGLVQPGGSLRLSCAASGFAFSNHGMHWVRQAPGKGLEWLSYISGSTGAIHYANSVKGRFTISRDNARNSLDLQMNSLGDEDTAVYYCARDGPRPDGTGYAGPSNDYWGQGTLVSVSS
VL: EIVLTQSPASLSLSPGERATLSCKASRSISIYLAWYQQKPGQAPRLLIYDASYRAIGIPARFSGSGSGTDFTLTISNLEPEDFAVYYCQHRSSWPALTFGGGTKVEIK
binds: [11]

From article PMC6591005 (Immunity, 2019)
